From publication PMC10420310, “The Complex Proteolipidic Behavior of the SARS-CoV-2 Envelope Protein Channel: Weak Selectivity and Heterogeneous Oligomerization” (International Journal of Molecular Sciences, 2023)
Values joined by “and” are separate entries in the source; they are usually repeats but may differ in a detail not shown here. Equal entries are not always repeated.

Tests used:
[1] = biological target: full-length SARS-2 E protein (E-FL) (SARS-CoV-2) (UniProt P0DTC4); experiment: AUC; sedimentation velocity, E-FL at DPR 125 in 5 mM C14SB micelles, 50 mM Tris-HCl pH 7.3, 100 mM NaCl, 29.4% D2O, 20 °C, 50,000 rpm
[2] = biological target: truncated SARS-2 E protein corresponding to residues 8–65 with N-terminal 6-His tag (6H-E-TR) (SARS-CoV-2) (UniProt P0DTC4); experiment: AUC; sedimentation velocity, His-E-TR at DPR 25 in 5 mM C14SB micelles, 50 mM Tris-HCl pH 7.3, 100 mM NaCl, 29.4% D2O, 20 °C, 50,000 rpm
[3] = biological target: truncated SARS-2 E protein corresponding to residues 8–65 with N-terminal 6-His tag (6H-E-TR) (SARS-CoV-2) (UniProt P0DTC4); experiment: AUC; sedimentation velocity, His-E-TR at DPR 70 in 5 mM C14SB micelles, 50 mM Tris-HCl pH 7.3, 100 mM NaCl, 29.4% D2O, 20 °C, 50,000 rpm

| Substance | stoichiometry N [1] | stoichiometry N [2] | stoichiometry N [3] |
| --- | --- | --- | --- |
| full-length SARS-2 E protein (E-FL) (from UniProt P0DTC4 1-75) (natural protein) | 2 and 4.6 | – | – |
| truncated SARS-2 E protein corresponding to residues 8–65 with N-terminal 6-His tag (6H-E-TR) (from UniProt P0DTC4 8-65) (domain or fragment) | – | 3 | 2.56 |
